Reference: patent US20100129344A1, “MEDICAL USES AND THERAPIES BASED UPON THE ACTION OF AZUROCIDIN ON IGFBP-1” (priority 2005, published 2010)
Marks after values point to notes of the source that are not given here. Blank lines part the entries; values can stand above or below the molecule they belong to.

What was measured:
IGF-I [1] = biological target: T1, IGF-I (Homo sapiens, UniProt P05019); conditions: liver-secreted phosphoprotein, after dephosphorylation; cited from earlier work
Target sequence in this assay (P05019 49-118): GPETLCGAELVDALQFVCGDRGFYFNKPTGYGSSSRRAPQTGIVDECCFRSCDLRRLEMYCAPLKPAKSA

IGF-I [2] = biological target: T1, IGF-I; assay: BIAcore analysis over IGF-I biosensor surface; type: binding; design: purchased Kabi Pharmacia (Sweden), donated; conditions: for kd (rate of dissociation, over 261-360 s) / ks (rate of association, over 21-120 s): mean ± SEM; for predicted maximum response for interaction with IGF-I: based on initial rate of association (21-120 s), proteolysed = 2-h time point
Procedure: (§1) Recombinant pIGFBP-1 was analyzed across IGF-I (A, C) and IGF-II (B, D) biosensor surfaces. A concentration range of 50, 100, 200, 400 nM was analyzed at a flow rate of 10 μl/min. A,B: Mean sensorgrams for 400 nM IGFBP-1 (intact, n=3) and 200 nM IGFBP-1, intact (0 h, n=4) and after 2-h (n=5) and 4-h (n=3) incubations with partially purified azurocidin in a protease:substrate ratio of 1:3 500 for 2 h at 37 C. C,D: The rate of association (ks), the absolute value of the slope (dRU/dt versus RU) over the linear initial association phase (21-120 s), is shown for pIGFBP-1, intact (closed circles), and after incubation with partially purified azurocidin for 2 h at 37 C (open circles); and
(§2) Instrument and reagents (buffers, chemicals for activating and deactivated) were purchased from BIAcore (Uppsala, Sweden). IGF-I, IGF-II and des(1-3)IGF-I were immobilized on the sensor chip by amine coupling and deactivated with 0.1M ethanolamine. A reference flow cell was also prepared to correct for background and bulk refractive index contribution. After equilibration buffer to achieve a stable baseline, binding experiments was at 22 C in 2 separate experiments with the samples injected in random order. 40 μl of each sample was injected over the sensor surface at a rate of 10 μl/min (association period), followed by a 6 min wash with buffer (dissociation period). The sensor surface was regenerated with 20 μl of 100 mM HCl and washed for 6 min before the next sample. We used a 1:1 Langmuir binding interaction model for kinetic analysis using the BIAcore software and GraphPad Prism (GraphPad Software Inc, San Diego, Calif.).
Target sequence in this assay (P05019 49-118 limits assumed): as the sequence (P05019 49-118) above

[3] = system: primary human skeletal myotubes; assay: 2-Deoxyglucose transport (glucose uptake); type: cell-based; conditions: for effect on glucose uptake alone: absence of exogenous IGF-II, 80 ng/ml
Procedure: Primary human skeletal myotubes were incubated under serum-free conditions for 24 h. Glucose uptake was determined as described in the Methods. The results are the mean±SEM of four experiments using cells from different individuals each with 3 replicates; and are expressed as the percentage of uptake in the absence of IGF-II or IGFBP-1 for each. The effect of IGF-II is shown in the hatched bars. The effect of pIGFBP-1 on stimulation of glucose uptake by 10 ng/ml IGF-II was analyzed by 2-way ANOVA for each of the 20 ng/ml and 80 ng/ml concentrations; *, P<0.01, **, P<0.001, compared to no IGF-II; ††, P<0.001, compared to no IGFBP-1 or intact IGFBP-1.
Human skeletal muscle cells were isolated, with approval from the local Ethics Committee, from the muscle biopsies by trypsin digestion and were grown to confluent myoblasts and differentiated into myotubes as previously described in detail (Bouzakri et al, Diabetes, 52, 1319-1325, 2003). Muscle from 4 different subjects were individually minced before being incubated for 30 min in 5 ml of trypsin-EDTA (Invitrogen, Carlsbad, Calif.) at 37° C. under agitation. After being centrifuged (150 g), the pellet was rinsed several times in PBS. Cells were first preplated for 1 h to eliminate rapidly adherent fibroblasts. The remaining cells were then cultured in a growth medium composed of HAM F-10 supplemented with 20% fetal bovine serum (FBS; Invitrogen Stockholm, Sweden), and 1% antibiotics (Invitrogen Stockholm, Sweden). Cells were plated in 6 wells plates and cultured in growth medium at 37° C. until confluence. Differentiation into myotubes was induced by changing the medium to Dulbecco's modified Eagle's medium supplemented with 2% FBS, and 1% antibiotics.
2-Deoxyglucose transport: Glucose uptake was performed as previously described for primary human muscle cells (Bouzakri et al, Diabetologia, 47, 1314-1323, 2004). After 24-h serum starvation, myotubes were pre-incubated with or without IGF-II (10 ng/ml) and IGF-II+IGFBP-1 (intact or cleaved at 20 or 80 ng/ml) for 90 min. IGF-II and IGFBP-1 were mixed 30 min before the experiments. Cells were then washed four times with pre-warmed buffer (150 mmol/l NaCl, […] KCl, 1.2 mmol/l MgSO4, 1.2 mmol/l CaCL2, 2.5 mmol/l NaH2PO4, 10 mmol/l HEPES, pH 7.4) and glucose uptake was measured for 15 min using [3H]2-deoxyglucose (50 μmol/l, 14,800 Bq/well). Results were expressed as the percentage of glucose uptake in the absence of IGF-II or IGFBP-1.
(§3) Statistical analyses. The effect of IGF-II and IGFBP-1 in muscle cell culture was analyzed by two-way ANOVA. Where significant differences were observed, comparisons were made using the Tukey test. In the study using MCF-7 breast cancer cells the Wolcoxon Matched Pairs test was used. Statistical significance was set at P<0.05.

IGF-II = IGF-II (Homo sapiens, UniProt P01344); assay: BIAcore analysis over IGF-II biosensor surface; type: binding; design: IGF-I, IGF-II and des(1-3)IGF-I were immobilized on the sensor chip by amine coupling; conditions: for kd (rate of dissociation, over 261-360 s) / ks (rate of association, over 21-120 s): mean ± SEM
IGF-II, sequence (P01344 25-91 limits assumed): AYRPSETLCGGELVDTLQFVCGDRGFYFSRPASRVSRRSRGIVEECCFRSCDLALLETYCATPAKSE
Procedure: as §1, §2

[4] = system: MCF-7 human breast cancer cells; assay: 3H-Thymidine incorporation; type: cell-based
Procedure: Cell studies. MCF-7 human breast cancer cells were maintained in MEM alpha ribonucleic acid-free medium supplemented with 10% foetal bovine serum, 50 Unit/ml penicillin sodium, 50 μg/ml streptomycin sulfate and 2 mM L-glutamine at 37C in 5% CO2 humidified environment.
3H-Thymidine incorporation: Experiments were carried out in 48-well plates, at 70% confluence. After a 20-h incubation in serum-free medium supplemented with 0.1% BSA, the experimental conditions were added for a further 24 h, with ^3H-thymidine (1 μCi/ml) added for the last 4 h. Cells were then washed with ice-cold 0.9% NaCl three times and incubated with ice-cold 5% TCA for 15 min at 22 C. The fixed nucleotides were solubilized in 0.1M NaOH at 22 C and subjected to liquid scintillation counting.
as §3

des(1-3)IGF-I = biological target: T2, des(1-3)IGF-I (Homo sapiens, UniProt P05019); assay: BIAcore analysis over des(1-3)IGF-I biosensor surface; type: binding; conditions: 200 nM, 2-h and 4-h incubations with partially purified azurocidin
T2 construct: IGF-I, IGF-II and des(1-3)IGF-I were immobilized on the sensor chip by amine coupling; purchased GroPep (Adelaide, Australia)
T2 sequence (P05019 52-118): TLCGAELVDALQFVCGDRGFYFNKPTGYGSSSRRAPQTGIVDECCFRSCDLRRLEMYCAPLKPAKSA
Procedure: Recombinant pIGFBP-1 was analyzed across a des(1-3) IGF-I biosensor surfaces with a concentration range of 50, 100, 200, 400 nM, at a flow rate of 10 μl/min. The mean sensorgrams are shown for 400 nM IGFBP-1 (intact, n=3) and 200 nM IGFBP-1, intact (0 h, n=4) and after 2-h (n=5) and 4-h (n=3) incubations with partially purified azurocidin in a protease:substrate ratio of 1:3 500 for 2 h at 37 C.
as §2

azurocidin = biological target: T3, azurocidin (Homo sapiens, UniProt P20160); assay: Stability of IGFBP-1 fragments generated in the presence of azurocidin; type: biochemical
T3 construct: from tissue
T3 sequence (P20160 27-248): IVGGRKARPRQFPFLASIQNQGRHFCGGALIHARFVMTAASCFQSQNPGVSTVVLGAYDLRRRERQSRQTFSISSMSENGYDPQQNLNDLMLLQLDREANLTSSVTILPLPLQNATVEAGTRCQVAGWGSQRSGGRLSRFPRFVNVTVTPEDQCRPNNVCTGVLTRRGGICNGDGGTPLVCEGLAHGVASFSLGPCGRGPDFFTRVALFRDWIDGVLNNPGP

[5] = IGF-I surface, IGFBP-1 200 nM, proteolysis 0 h
[6] = IGF-I surface, IGFBP-1 400 nM, proteolysis 0 h
[7] = IGF-II 10 ng/ml + IGFBP-1 20 or 80 ng/ml
[8] = IGFBP-1 200 nM, proteolysis 0 h
[9] = IGFBP-1 400 nM, proteolysis 0 h
[10] = IGF-I surface, IGFBP-1 200 nM, proteolysis 2 h by azurocidin
[11] = IGF-I surface, IGFBP-1 200 nM, proteolysis 4 h by azurocidin
[12] = IGFBP-1 200 nM, proteolysis 2 h
[13] = IGFBP-1 200 nM, proteolysis 2 h by azurocidin
[14] = IGFBP-1 200 nM, proteolysis 4 h
[15] = IGFBP-1 200 nM, proteolysis 4 h by azurocidin

kd (rate of dissociation, over 261-360 s) (IGF-I [2]; [5]): 1.46 ± 0.19 ×10^−4 s^−1
ks (rate of association, over 21-120 s) (IGF-I [2]; [5]): 4.29 ± 0.46 ×10^−3 s^−1
kd (rate of dissociation, over 261-360 s) (IGF-I [2]; [6]): 1.45 ± 0.02 ×10^−4 s^−1
ks (rate of association, over 21-120 s) (IGF-I [2]; [6]): 8.21 ± 0.14 ×10^−3 s^−1
predicted maximum response for interaction with IGF-I (IGF-I [2]): 908±79 RU
kd (rate of dissociation, over 261-360 s) (IGF-II; [8]): 3.48 ± 0.40 ×10^−4 s^−1
ks (rate of association, over 21-120 s) (IGF-II; [8]): 4.47 ± 0.78 ×10^−3 s^−1
kd (rate of dissociation, over 261-360 s) (IGF-II; [9]): 3.37 ± 0.02 ×10^−4 s^−1
ks (rate of association, over 21-120 s) (IGF-II; [9]): 8.30 ± 0.13 ×10^−3 s^−1
B1: intact pIGFBP-1: recombinant human phosphorylated IGFBP-1, intact (protein)
chain: APWQCAPCSAEKLALCPPVSASCSEVTRSAGCGCCPMCALPLGAACGVATARCARGLSCRALPGEQQPLHALTRGQGACVQESDASAPHAAEAGSPESPESTEITEEELLDNFHLMAPSEEDHSILWDAISTYDGSKALHVTNIKKWKEPCRIELYRVVESLAKAQETSGEEISKFYLPNCNKNGFYHSRQCETSMDGEAGLCWCVYPWNGKRIPGSPEIRGDPNCQIYFNVQN
reduction of affinity for IGF-I by dephosphorylation (IGF-I [1]): six fold
effect on IGF-II-stimulated glucose uptake [3, 7]: inhibited in a dose-response manner
effect on glucose uptake alone [3]: no effect
inhibition of 3H-thymidine incorporation by pIGFBP-1 alone ([4]; without IGF-II, 4 experiments): 13-33%

effect of proteolysis on rate of dissociation from des(1-3)IGF-I (des(1-3)IGF-I): clearly increase
kd (rate of dissociation, over 261-360 s) (IGF-I [2]; [10]): 6.40 ± 0.25 ×10^−4 s^−1
ks (rate of association, over 21-120 s) (IGF-I [2]; [10]): 17.26 ± 0.49 ×10^−3 s^−1
rel ks (relative to 200 nM intact pIGFBP-1) (IGF-I [2]; IGF-I surface, IGFBP-1 200 nM, proteolysis 4 h): 2.96*^†
kd (rate of dissociation, over 261-360 s) (IGF-I [2]; [11]): 11.36 ± 0.05 ×10^−4 s^−1
ks (rate of association, over 21-120 s) (IGF-I [2]; [11]): 12.69 ± 0.08 ×10^−3 s^−1
predicted maximum response for interaction with IGF-I (IGF-I [2]): 1156±16 RU
kd rel to IGF-I (IGF-II; [12]): 2.51^‡
ks rel to IGF-I (IGF-II; [12]): 0.89
kd (rate of dissociation, over 261-360 s) (IGF-II; [13]): 15.99 ± 0.19 ×10^−4 s^−1
ks (rate of association, over 21-120 s) (IGF-II; [13]): 15.43 ± 0.58 ×10^−3 s^−1
kd rel to IGF-I (IGF-II; [14]): 2.39^‡
ks rel to IGF-I (IGF-II; [14]): 1.01
rel ks (relative to 200 nM intact pIGFBP-1) (IGF-II; [14]): 2.86*^†
kd (rate of dissociation, over 261-360 s) (IGF-II; [15]): 27.17 ± 0.12 ×10^−4 s^−1
ks (rate of association, over 21-120 s) (IGF-II; [15]): 12.80 ± 0.08 ×10^−3 s^−1
B2: proteolysed IGFBP-1: phosphorylated IGFBP-1 after incubation with partially purified azurocidin (mixture of N- and C-terminal fragments) (protein)
chain 1: APWQCAPCSAEKLALCPPVSASCSEVTRSAGCGCCPMCALPLGAACGVATARCARGLSCRALPGEQQPLHALTRGQGACVQESDASAPHAAEAGSPESPESTEITEEELLDNFHLMAPSEEDHSILWDAI
chain 2: STYDGSKALHVTNIKKWKEPCRIELYRVVESLAKAQETSGEEISKFYLPNCNKNGFYHSRQCETSMDGEAGLCWCVYPWNGKRIPGSPEIRGDPNCQIYFNVQN
effect on IGF-II-stimulated glucose uptake [3, 7]: inhibited in a dose-response manner
inhibitory effect on IGF-II-stimulated glucose uptake compared with intact IGFBP-1 ([3]; IGF-II 10 ng/ml + IGFBP-1 20 or 80 ng/ml, P<0.001): significantly less
effect on glucose uptake alone [3]: stimulated glucose uptake
further degradation of IGFBP-1 fragments (azurocidin; 2-h incubation at 45 C): no further degradation
further degradation of IGFBP-1 fragments (azurocidin; 24-h incubation at 37 C): no further degradation
IGF-II-stimulated 3H-thymidine incorporation after addition of IGFBP-1 ([4]; IGF-II 10 ng/ml + pIGFBP-1 90 ng/ml, 6 experiments): no inhibition
